Source: IntAct's records for PubMed 31515488

B1: Cell division cycle 7-related protein kinase (Homo sapiens), O00311 (parent)
chain: MEASLGIQMDEPMAFSPQRDRFQAEGSLKKNEQNFKLAGVKKDIEKLYEAVPQLSNVFKIEDKIGEGTFSSVYLATAQLQVGPEEKIALKHLIPTSHPIRIAAELQCLTVAGGQDNVMGVKYCFRKNDHVVIAMPYLEHESFLDILNSLSFQEVREYMLNLFKALKRIHQFGIVHRDVKPSNFLYNRRLKKYALVDFGLAQGTHDTKIELLKFVQSEAQQERCSQNKSHIITGNKIPLSGPVPKELDQQSTTKASVKRPYTNAQIQIKQGKDGKEGSVGLSVQRSVFGERNFNIHSSISHESPAVKLMKQSKTVDVLSRKLATKKKAISTKVMNSAVMRKTASSCPASLTCDCYATDKVCSICLSRRQQVAPRAGTPGFRAPEVLTKCPNQTTAIDMWSAGVIFLSLLSGRYPFYKASDDLTALAQIMTIRGSRETIQAAKTFGKSILCSKEVPAQDLRKLCERLRGMDSSTPKLTSDIQGHASHQPAISEKTDHKASCLVQTPPGQYSGNSFKKGDSNSCEHCFDEYNTNLEGWNEVPDEAYDLLDKLLDLNPASRITAEEALLHPFFKDMSL
partner: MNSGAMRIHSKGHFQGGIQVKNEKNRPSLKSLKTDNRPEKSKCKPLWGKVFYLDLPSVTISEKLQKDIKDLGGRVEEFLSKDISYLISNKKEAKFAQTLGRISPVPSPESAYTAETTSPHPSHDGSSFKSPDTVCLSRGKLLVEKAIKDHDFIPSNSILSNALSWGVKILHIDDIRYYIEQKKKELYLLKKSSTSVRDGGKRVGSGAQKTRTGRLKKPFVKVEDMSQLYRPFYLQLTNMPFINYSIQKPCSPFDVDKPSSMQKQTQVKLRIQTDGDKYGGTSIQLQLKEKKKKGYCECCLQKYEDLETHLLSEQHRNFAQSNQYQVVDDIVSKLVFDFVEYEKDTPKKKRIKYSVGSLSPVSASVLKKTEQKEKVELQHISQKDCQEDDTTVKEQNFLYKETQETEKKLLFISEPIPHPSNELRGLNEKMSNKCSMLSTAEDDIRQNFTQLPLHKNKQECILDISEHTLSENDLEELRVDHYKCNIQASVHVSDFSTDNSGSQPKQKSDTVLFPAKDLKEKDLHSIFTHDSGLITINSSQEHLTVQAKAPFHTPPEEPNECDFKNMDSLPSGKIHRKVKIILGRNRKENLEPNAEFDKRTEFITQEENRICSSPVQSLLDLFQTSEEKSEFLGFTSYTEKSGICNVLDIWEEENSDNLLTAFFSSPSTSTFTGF
B2: Septin-12 (Homo sapiens), Q8IYM1 (parent)
chain: MDPLRRSPSPCLSSQPSSPSTPPCEMLGPVGIEAVLDQLKIKAMKMGFEFNIMVVGQSGLGKSTMVNTLFKSKVWKSNPPGLGVPTPQTLQLHSLTHVIEEKGVKLKLTVTDTPGFGDQINNDNCWDPILGYINEQYEQYLQEEILITRQRHIPDTRVHCCVYFVPPTGHCLRPLDIEFLQRLCRTVNVVPVIARADSLTMEEREAFRRRIQQNLRTHCIDVYPQMCFDEDINDKILNSKLRDRIPFAVVGADQEHLVNGRCVLGRKTKWGIIEVENMAHCEFPLLRDLLIRSHLQDLKDITHNIHYENYRVIRLNESHLLPRGPGWVNLAPASPGQLTTPRTFKVCRGAHDDSDDEF
partner: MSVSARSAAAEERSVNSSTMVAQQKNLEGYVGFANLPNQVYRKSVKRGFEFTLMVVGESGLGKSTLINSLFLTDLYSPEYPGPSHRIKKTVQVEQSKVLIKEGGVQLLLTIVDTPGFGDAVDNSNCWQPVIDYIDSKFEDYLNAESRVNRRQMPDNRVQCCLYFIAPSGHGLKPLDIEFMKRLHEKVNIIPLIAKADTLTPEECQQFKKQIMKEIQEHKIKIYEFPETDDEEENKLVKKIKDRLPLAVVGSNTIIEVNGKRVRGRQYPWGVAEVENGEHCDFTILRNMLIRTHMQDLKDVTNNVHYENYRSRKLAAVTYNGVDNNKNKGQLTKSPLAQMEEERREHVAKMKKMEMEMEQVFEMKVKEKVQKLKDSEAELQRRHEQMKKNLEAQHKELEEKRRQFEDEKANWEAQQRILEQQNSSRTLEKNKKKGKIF
B3: E3 ubiquitin-protein ligase TRIM39 (Homo sapiens), Q9HCM9 (parent)
chain: MAETSLLEAGASAASTAAALENLQVEASCSVCLEYLKEPVIIECGHNFCKACITRWWEDLERDFPCPVCRKTSRYRSLRPNRQLGSMVEIAKQLQAVKRKIRDESLCPQHHEALSLFCYEDQEAVCLICAISHTHRAHTVVPLDDATQEYKEKLQKCLEPLEQKLQEITRCKSSEEKKPGELKRLVESRRQQILREFEELHRRLDEEQQVLLSRLEEEEQDILQRLRENAAHLGDKRRDLAHLAAEVEGKCLQSGFEMLKDVKSTLEKNIPRKFGGSLSTICPRDHKALLGLVKEINRCEKVKTMEVTSVSIELEKNFSNFPRQYFALRKILKQLIADVTLDPETAHPNLVLSEDRKSVKFVETRLRDLPDTPRRFTFYPCVLATEGFTSGRHYWEVEVGDKTHWAVGVCRDSVSRKGELTPLPETGYWRVRLWNGDKYAATTTPFTPLHIKVKPKRVGIFLDYEAGTLSFYNVTDRSHIYTFTDTFTEKLWPLFYPGIRAGRKNAAPLTIRPPTDWE
B4: Maspardin (Homo sapiens), Q9NZD8 (parent)
chain: MGEIKVSPDYNWFRGTVPLKKIIVDDDDSKIWSLYDAGPRSIRCPLIFLPPVSGTADVFFRQILALTGWGYRVIALQYPVYWDHLEFCDGFRKLLDHLQLDKVHLFGASLGGFLAQKFAEYTHKSPRVHSLILCNSFSDTSIFNQTWTANSFWLMPAFMLKKIVLGNFSSGPVDPMMADAIDFMVDRLESLGQSELASRLTLNCQNSYVEPHKIRDIPVTIMDVFDQSALSTEAKEEMYKLYPNARRAHLKTGGNFPYLCRSAEVNLYVQIHLLQFHGTKYAAIDPSMVSAEELEVQKGSLGISQEEQ
partner: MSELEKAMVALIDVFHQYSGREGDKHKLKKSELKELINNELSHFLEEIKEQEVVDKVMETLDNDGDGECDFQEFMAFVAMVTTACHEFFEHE
B5: Low-density lipoprotein receptor class A domain-containing protein 1 (Homo sapiens), Q5T700 (parent)
chain: MNKVFPQGENGYTAAESKAHPGGEAGGGHLCCSRRGACLSASLLLLLATVAALIALVTILGLPSCTPGAQACITLTNRTGFLCHDQRSCIPASGVCDGVRTCTHGEDEDESLCRDVPQSLPHFLVAHCGDPASWIYSDQKCDGTNNCGDCSDELSPVTVCPPCGPGWWRCPSTFFKYCDCIPRHLCRDHVQHCSDWSDEYACPGP
partner: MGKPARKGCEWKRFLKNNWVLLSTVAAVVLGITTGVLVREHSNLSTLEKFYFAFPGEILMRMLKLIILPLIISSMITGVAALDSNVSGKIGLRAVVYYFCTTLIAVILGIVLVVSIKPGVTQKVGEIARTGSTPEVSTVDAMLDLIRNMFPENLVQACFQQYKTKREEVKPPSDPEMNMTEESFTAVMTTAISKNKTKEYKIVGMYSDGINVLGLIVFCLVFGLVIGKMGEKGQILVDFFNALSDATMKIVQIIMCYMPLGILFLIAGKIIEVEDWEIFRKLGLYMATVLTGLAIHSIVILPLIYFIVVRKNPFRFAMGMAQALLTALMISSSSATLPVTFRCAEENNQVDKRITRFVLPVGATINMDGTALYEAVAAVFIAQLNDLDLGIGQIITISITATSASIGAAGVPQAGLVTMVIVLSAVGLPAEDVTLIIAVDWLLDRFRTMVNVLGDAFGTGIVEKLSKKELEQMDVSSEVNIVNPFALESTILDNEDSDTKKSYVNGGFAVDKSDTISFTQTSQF

Variants of: B1
Details: with dbf4a_human DBF4, Q9UBU7

Variant | effect of a mutation on the interaction
Q456H | with no effect
Q106R | with no effect

Variants of: B2
Details: with sept7_human SEPTIN7, Q16181

Variant | effect of a mutation on the interaction
D197N | disrupting interaction strength
G169E | disrupting interaction strength

Variants of: B3
Details: with znf26_human ZNF26, P17031
Sequence of znf26_human ZNF26, P17031 (P17031 whole entry): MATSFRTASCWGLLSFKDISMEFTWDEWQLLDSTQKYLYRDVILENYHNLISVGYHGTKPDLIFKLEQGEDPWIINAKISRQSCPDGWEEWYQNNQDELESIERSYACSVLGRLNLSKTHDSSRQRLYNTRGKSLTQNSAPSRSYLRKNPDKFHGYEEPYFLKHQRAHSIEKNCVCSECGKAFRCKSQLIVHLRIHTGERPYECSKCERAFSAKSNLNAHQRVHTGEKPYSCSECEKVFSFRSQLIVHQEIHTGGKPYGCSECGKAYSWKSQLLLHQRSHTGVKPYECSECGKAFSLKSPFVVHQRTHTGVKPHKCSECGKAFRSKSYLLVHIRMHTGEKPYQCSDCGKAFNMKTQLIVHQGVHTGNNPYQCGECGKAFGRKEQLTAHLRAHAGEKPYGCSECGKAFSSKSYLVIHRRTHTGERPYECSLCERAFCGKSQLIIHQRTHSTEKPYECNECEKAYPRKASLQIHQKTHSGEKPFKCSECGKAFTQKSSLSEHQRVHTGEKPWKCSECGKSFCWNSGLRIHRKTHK

Variant | effect of a mutation on the interaction
L194S | disrupting interaction strength

Variants of: B3
Details: with ccnc_human CCNC

Variant | effect of a mutation on the interaction
L194S | disrupting interaction strength

Variants of: B3
Details: with if4a2_human EIF4A2, Q14240
Sequence of if4a2_human EIF4A2, Q14240 (Q14240 whole entry): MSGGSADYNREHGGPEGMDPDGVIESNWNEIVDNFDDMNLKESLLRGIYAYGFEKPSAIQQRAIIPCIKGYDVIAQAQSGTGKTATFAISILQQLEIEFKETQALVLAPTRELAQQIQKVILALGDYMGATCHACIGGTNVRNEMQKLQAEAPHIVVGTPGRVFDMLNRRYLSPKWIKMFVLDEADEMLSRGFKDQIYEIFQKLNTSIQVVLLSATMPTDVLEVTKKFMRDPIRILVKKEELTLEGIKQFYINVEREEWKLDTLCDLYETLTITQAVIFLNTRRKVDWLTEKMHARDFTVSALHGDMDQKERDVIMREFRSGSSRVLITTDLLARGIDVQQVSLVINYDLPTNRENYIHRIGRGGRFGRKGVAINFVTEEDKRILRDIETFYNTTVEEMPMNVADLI

Variant | effect of a mutation on the interaction
L194S | disrupting interaction strength

Variants of: B3
Details: with ub2e2_human UBE2E2, Q96LR5
Sequence of ub2e2_human UBE2E2, Q96LR5 (Q96LR5 whole entry): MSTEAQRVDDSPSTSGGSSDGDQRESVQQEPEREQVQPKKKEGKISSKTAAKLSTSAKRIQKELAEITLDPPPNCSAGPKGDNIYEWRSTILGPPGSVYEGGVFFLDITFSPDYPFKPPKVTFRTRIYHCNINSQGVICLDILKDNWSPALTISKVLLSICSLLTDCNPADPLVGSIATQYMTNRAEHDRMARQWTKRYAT

Variant | effect of a mutation on the interaction
L194S | disrupting interaction strength

Variants of: B3
Details: with ub2d3_human UBE2D3, P61077
Sequence of ub2d3_human UBE2D3, P61077 (P61077 whole entry): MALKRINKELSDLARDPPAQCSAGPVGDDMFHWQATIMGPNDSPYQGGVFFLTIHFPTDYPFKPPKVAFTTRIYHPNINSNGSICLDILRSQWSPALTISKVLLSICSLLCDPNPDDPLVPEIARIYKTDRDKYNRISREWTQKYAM

Variant | effect of a mutation on the interaction
L194S | disrupting interaction strength

Variants of: B4
Details: with S100B

Variant | effect of a mutation on the interaction
H272D | disrupting interaction strength
A180T | disrupting interaction strength

Variants of: B5
Details: with eaa3_human SLC1A1, P43005

Variant | effect of a mutation on the interaction
E108K | with no effect
